Reference: the supplement of paper PMC5998384

Tests used:
HeLa Kyoto [1] = assay: solubility in G1/S (NP-40 vs SDS abundance) (log2 ratio); higher = more soluble; conditions: cell cycle stage: G1/S
HeLa Kyoto [2] = assay: melting temperature (median over replicates), in situ; higher = more thermally stable
HeLa Kyoto [3] = assay: solubility change mitosis vs G1/S (difference of NP-40 vs SDS log2 ratios) (log2 ratio difference); higher = more soluble in mitosis
HeLa Kyoto [4] = assay: thermal stability score vs G1/S (z-score of summed log2 fold changes over temperatures); higher = more thermally stable than in G1/S
[5] = cell cycle stage: early G1 (4.5 h after nocodazole release)
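Throughout, for melting temperature (median over replicates), in situ: HeLa Kyoto cells synchronized by double thymidine or nocodazole block, proteins quantified by TMT10plex mass spectrometry, three independent biological replicates.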
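Throughout, for solubility change mitosis vs G1/S (difference of NP-40 vs SDS log2 ratios): synchronized HeLa Kyoto cells (double thymidine block for G1/S, nocodazole release for mitosis), protein amounts in NP-40 versus SDS lysates quantified by mass spectrometry, three biological replicates.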
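Throughout, for solubility in G1/S (NP-40 vs SDS abundance): HeLa Kyoto cells arrested at G1/S by double thymidine block, proteins quantified by TMT10plex mass spectrometry in mild NP-40 versus SDS extracts, three biological replicates.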
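Throughout, for thermal stability score vs G1/S (z-score of summed log2 fold changes over temperatures): synchronized HeLa Kyoto cells, proteins quantified by TMT10plex mass spectrometry, three biological replicates, mitosis taken 0.5 h after nocodazole release, G1/S directly after double thymidine block.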

Row | Sequence | solubility in G1/S (log2) (HeLa Kyoto [1]) | melting temperature (HeLa Kyoto [2]; cell cycle stage: G1/S) [°C] | melting temperature (HeLa Kyoto [2]; cell cycle stage: mitosis) [°C] | solubility change mitosis (log2) (HeLa Kyoto [3]) | thermal stability score (HeLa Kyoto [4]; [5]) | thermal stability score (HeLa Kyoto [4]; cell cycle stage: mitosis)
1 | MDGRTPRPQDAPARRKPKAKAPLPPAETKYTDVSSAADSVESTAFIMEQKENMIDKDVELSVVLPGDIIKSTTVHGSKPMMDLLIFLCAQYHLNPSSYTIDLLSAEQNHIKFKPNTPIGMLEVEKVILKPKMLDKKKPTPIIPEKTVRVVINFKKTQKTIVRVSPHASLQELAPIICSKCEFDPLHTLLLKDYQSQEPLDLTKSLNDLGLRELYAMDVNRESCQISQNLDIMKEKENKGFFSFFQRSKKKRDQTASAPATPLVNKHRPTFTRSNTISKPYISNTLPSDAPKKRRAPLPPMPASQSVPQDLAHIQERPASCIVKSMSVDETDKSPCEAGRVRAGSLQLSSMSAGNSSLRRTKRKAPSPPSKIPPHQSDENSRVTALQPVDGVPPDSASEANSPEELSSPAGISSDYSLEEIDEKEELSEVPKVEAENISPKSQDIPFVSTDIINTLKNDPDSALGNGSGEFSQNSMEEKQETKSTDGQEPHSVVYDTSNGKKVVDSIRNLKSLGPNQENVVQNEIIVYPENTEDNMKNGVKKTEINVEGVAKNNNIDMEVERPSNSEAHETDTAISYKENHLAASSVPDQKLNQPSAEKTKDAAIQTTPSCNSFDGKHQDHNLSDSKVEECVQTSNNNISTQHSCLSSQDSVNTSREFRSQGTLIIHSEDPLTVKDPICAHGNDDLLPPVDRIDKNSTASYLKNYPLYRQDYNPKPKPSNEITREYIPKIGMTTYKIVPPKSLEISKDWQSETIEYKDDQDMHALGKKHTHENVKETAIQTEDSAISESPEEPLPNLKPKPNLRTEHQVPSSVSSPDDAMVSPLKPAPKMTRDTGTAPFAPNLEEINNILESKFKSRASNAQAKPSSFFLQMQKRVSGHYVTSAAAKSVHAAPNPAPKELTNKEAERDMLPSPEQTLSPLSKMPHSVPQPLVEKTDDDVIGQAPAEASPPPIAPKPVTIPASQVSTQNLKTLKTFGAPRPYSSSGPSPFALAVVKRSQSFSKERTESPSASALVQPPANTEEGKTHSVNKFVDIPQLGVSDKENNSAHNEQNSQIPTPTDGPSFTVMRQSSLTFQSSDPEQMRQSLLTAIRSGEAAAKLKRVTIPSNTISVNGRSRLSHSMSPDAQDGH [COBLL1] | 0.0471 | 50.5 | 50.8 | -0.0197 | -0.155 | -0.336
2 | MDHYDSQQTNDYMQPEEDWDRDLLLDPAWEKQQRKTFTAWCNSHLRKAGTQIENIEEDFRDGLKLMLLLEVISGERLAKPERGKMRVHKISNVNKALDFIASKGVKLVSIGAEEIVDGNVKMTLGMIWTIILRFAIQDISVEETSAKEGLLLWCQRKTAPYKNVNIQNFHISWKDGLGFCALIHRHRPELIDYGKLRKDDPLTNLNTAFDVAEKYLDIPKMLDAEDIVGTARPDEKAIMTYVSSFYHAFSGAQKAETAANRICKVLAVNQENEQLMEDYEKLASDLLEWIRRTIPWLENRVPENTMHAMQQKLEDFRDYRRLHKPPKVQEKCQLEINFNTLQTKLRLSNRPAFMPSEGRMVSDINNAWGCLEQVEKGYEEWLLNEIRRLERLDHLAEKFRQKASIHEAWTDGKEAMLRQKDYETATLSEIKALLKKHEAFESDLAAHQDRVEQIAAIAQELNELDYYDSPSVNARCQKICDQWDNLGALTQKRREALERTEKLLETIDQLYLEYAKRAAPFNNWMEGAMEDLQDTFIVHTIEEIQGLTTAHEQFKATLPDADKERLAILGIHNEVSKIVQTYHVNMAGTNPYTTITPQEINGKWDHVRQLVPRRDQALTEEHARQQHNERLRKQFGAQANVIGPWIQTKMEEIGRISIEMHGTLEDQLSHLRQYEKSIVNYKPKIDQLEGDHQLIQEALIFDNKHTNYTMEHIRVGWEQLLTTIARTINEVENQILTRDAKGISQEQMNEFRASFNHFDRDHSGTLGPEEFKACLISLGYDIGNDPQGEAEFARIMSIVDPNRLGVVTFQAFIDFMSRETADTDTADQVMASFKILAGDKNYITMDELRRELPPDQAEYCIARMAPYTGPDSVPGALDYMSFSTALYGESDL [ACTN1] | -0.1 | 58.3 | 55.9 | 0.09 | -0.623 | -1.86
3 | MDISTRSKDPGSAERTAQKRKFPSPPHSSNGHSPQDTSTSPIKKKKKPGLLNSNNKEQSELRHGPFYYMKQPLTTDPVDVVPQDGRNDFYCWVCHREGQVLCCELCPRVYHAKCLRLTSEPEGDWFCPECEKITVAECIETQSKAMTMLTIEQLSYLLKFAIQKMKQPGTDAFQKPVPLEQHPDYAEYIFHPMDLCTLEKNAKKKMYGCTEAFLADAKWILHNCIIYNGGNHKLTQIAKVVIKICEHEMNEIEVCPECYLAACQKRDNWFCEPCSNPHPLVWAKLKGFPFWPAKALRDKDGQVDARFFGQHDRAWVPINNCYLMSKEIPFSVKKTKSIFNSAMQEMEVYVENIRRKFGVFNYSPFRTPYTPNSQYQMLLDPTNPSAGTAKIDKQEKVKLNFDMTASPKILMSKPVLSGGTGRRISLSDMPRSPMSTNSSVHTGSDVEQDAEKKATSSHFSASEESMDFLDKSTASPASTKTGQAGSLSGSPKPFSPQLSAPITTKTDKTSTTGSILNLNLDRSKAEMDLKELSESVQQQSTPVPLISPKRQIRSRFQLNLDKTIESCKAQLGINEISEDVYTAVEHSDSEDSEKSDSSDSEYISDDEQKSKNEPEDTEDKEGCQMDKEPSAVKKKPKPTNPVEIKEELKSTSPASEKADPGAVKDKASPEPEKDFSEKAKPSPHPIKDKLKGKDETDSPTVHLGLDSDSESELVIDLGEDHSGREGRKNKKEPKEPSPKQDVVGKTPPSTTVGSHSPPETPVLTRSSAQTSAAGATATTSTSSTVTVTAPAPAATGSPVKKQRPLLPKETAPAVQRVVWNSSSKFQTSSQKWHMQKMQRQQQQQQQQNQQQQPQSSQGTRYQTRQAVKAVQQKEITQSPSTSTITLVTSTQSSPLVTSSGSMSTLVSSVNADLPIATASADVAADIAKYTSKMMDAIKGTMTEIYNDLSKNTTGSTIAEIRRLRIEIEKLQWLHQQELSEMKHNLELTMAEMRQSLEQERDRLIAEVKKQLELEKQQAVDETKKKQWCANCKKEAIFYCCWNTSYCDYPCQQAHWPEHMKSCTQSATAPQQEADAEVNTETLNKSSQGSSSSTQSAPSETASASKEKETSAEKSKESGSTLDLSGSRETPSSILLGSNQGSDHSRSNKSSWSSSDEKRGSTRSDHNTSTSTKSLLPKESRLDTFWD [ZMYND8] | -0.387 | 48.5 | 50.2 | 0.163 | 1.53 | 3.16
